Data on 8 molecules can be found in patent US20250277196A1, “EPSPS MUTANTS AND METHOD OF ITS USES” (CROPEDIT BIOTECHNOLOGY INC., priority 2021, published 2025).

B1: OsTIPS: mutated rice EPSPS with mutation T173I and P177S (SEQ ID NO:35); same mutation type as glyphosate-resistant corn GA21 (protein)
chain: MAAKAEEIVLQPIREISGAVQLPGSKSLSNRILLLSALSEGTTVVDNLLNSEDVHYMLEALKALGLSVEADKVAKRAVVVGCGGKFPVEKDAKEEVQLFLGNAGIAMRSLTAAVTAAGGNATYVLDGVPRMRERPIGDLVVGLKQLGADVDCFLGTECPPVRVKGIGGLPGGKVKLSGSISSQYLSALLMAAPLALGDVEIEIIDKLISIPYVEMTLRLMERFGVKAEHSDSWDRFYIKGGQKYKSPGNAYVEGDASSASYFLAGAAITGGTVTVQGCGTTSLQGDVKFAEVLEMMGAKVTWTDTSVTVTGPPREPYGKKHLKAVDVNMNKMPDVAMTLAVVALFADGPTAIRDVASWRVKETERMVAIRTELTKLGASVEEGPDYCIITPPEKLNITAIDTYDDHRMAMAFSLAACADVPVTIRDPGCTRKTFPNYFDVLSTFVRN
modifications: This sequence is synthesized in lab.
notes: same mutation type as glyphosate-resistant corn GA21
B2: 3-36: rice EPSPS with V113M, G172A, P177S and V403A mutations (protein)
chain: MAAKAEEIVLQPIREISGAVQLPGSKSLSNRILLLSALSEGTTVMDNLLNSEDVHYMLEALKALGLSVEADKVAKRAVVVGCGGKFPVEKDAKEEVQLFLGNAATAMRSLTAAVTAAGGNATYVLDGVPRMRERPIGDLVVGLKQLGADVDCFLGTECPPVRVKGIGGLPGGKVKLSGSISSQYLSALLMAAPLALGDVEIEIIDKLISIPYVEMTLRLMERFGVKAEHSDSWDRFYIKGGQKYKSPGNAYVEGDASSASYFLAGAAITGGTVTVQGCGTTSLQGDVKFAEVLEMMGAKVTWTDTSVTVTGPPREPYGKKHLKAVDVNMNKMPDAAMTLAVVALFADGPTAIRDVASWRVKETERMVAIRTELTKLGASVEEGPDYCIITPPEKLNITAIDTYDDHRMAMAFSLAACADVPVTIRDPGCTRKTFPNYFDVLSTFVRN
modifications: This sequence is synthesized in lab.
notes: rice EPSPS with V113M, G172A, P177S and V403A mutations
B3: 1-98: rice EPSPS with A73T, G172A, P177S and V403A mutations (protein)
chain: MAAKTEEIVLQPIREISGAVQLPGSKSLSNRILLLSALSEGTTVVDNLLNSEDVHYMLEALKALGLSVEADKVAKRAVVVGCGGKFPVEKDAKEEVQLFLGNAATAMRSLTAAVTAAGGNATYVLDGVPRMRERPIGDLVVGLKQLGADVDCFLGTECPPVRVKGIGGLPGGKVKLSGSISSQYLSALLMAAPLALGDVEIEIIDKLISIPYVEMTLRLMERFGVKAEHSDSWDRFYIKGGQKYKSPGNAYVEGDASSASYFLAGAAITGGTVTVQGCGTTSLQGDVKFAEVLEMMGAKVTWTDTSVTVTGPPREPYGKKHLKAVDVNMNKMPDAAMTLAVVALFADGPTAIRDVASWRVKETERMVAIRTELTKLGASVEEGPDYCIITPPEKLNITAIDTYDDHRMAMAFSLAACADVPVTIRDPGCTRKTFPNYFDVLSTFVRN
modifications: This sequence is synthesized in lab.
notes: rice EPSPS with A73T, G172A, P177S and V403A mutations
B4: 1-386: rice EPSPS with G172A, P177S, V403A and F502V mutations (protein)
chain: MAAKAEEIVLQPIREISGAVQLPGSKSLSNRILLLSALSEGTTVVDNLLNSEDVHYMLEALKALGLSVEADKVAKRAVVVGCGGKFPVEKDAKEEVQLFLGNAATAMRSLTAAVTAAGGNATYVLDGVPRMRERPIGDLVVGLKQLGADVDCFLGTECPPVRVKGIGGLPGGKVKLSGSISSQYLSALLMAAPLALGDVEIEIIDKLISIPYVEMTLRLMERFGVKAEHSDSWDRFYIKGGQKYKSPGNAYVEGDASSASYFLAGAAITGGTVTVQGCGTTSLQGDVKFAEVLEMMGAKVTWTDTSVTVTGPPREPYGKKHLKAVDVNMNKMPDAAMTLAVVALFADGPTAIRDVASWRVKETERMVAIRTELTKLGASVEEGPDYCIITPPEKLNITAIDTYDDHRMAMAFSLAACADVPVTIRDPGCTRKTVPNYFDVLSTFVRN
modifications: This sequence is synthesized in lab.
notes: rice EPSPS with G172A, P177S, V403A and F502V mutations
B5: 1-411: rice EPSPS with G172A, P177S, Y252F and V403A mutations (protein)
chain: MAAKAEEIVLQPIREISGAVQLPGSKSLSNRILLLSALSEGTTVVDNLLNSEDVHYMLEALKALGLSVEADKVAKRAVVVGCGGKFPVEKDAKEEVQLFLGNAATAMRSLTAAVTAAGGNATYVLDGVPRMRERPIGDLVVGLKQLGADVDCFLGTECPPVRVKGIGGLPGGKVKLSGSISSQFLSALLMAAPLALGDVEIEIIDKLISIPYVEMTLRLMERFGVKAEHSDSWDRFYIKGGQKYKSPGNAYVEGDASSASYFLAGAAITGGTVTVQGCGTTSLQGDVKFAEVLEMMGAKVTWTDTSVTVTGPPREPYGKKHLKAVDVNMNKMPDAAMTLAVVALFADGPTAIRDVASWRVKETERMVAIRTELTKLGASVEEGPDYCIITPPEKLNITAIDTYDDHRMAMAFSLAACADVPVTIRDPGCTRKTFPNYFDVLSTFVRN
modifications: This sequence is synthesized in lab.
notes: rice EPSPS with G172A, P177S, Y252F and V403A mutations
B6: 1-68: rice EPSPS with A70V, G172A, P177S, V403A and R514S mutations (protein)
chain: MVAKAEEIVLQPIREISGAVQLPGSKSLSNRILLLSALSEGTTVVDNLLNSEDVHYMLEALKALGLSVEADKVAKRAVVVGCGGKFPVEKDAKEEVQLFLGNAATAMRSLTAAVTAAGGNATYVLDGVPRMRERPIGDLVVGLKQLGADVDCFLGTECPPVRVKGIGGLPGGKVKLSGSISSQYLSALLMAAPLALGDVEIEIIDKLISIPYVEMTLRLMERFGVKAEHSDSWDRFYIKGGQKYKSPGNAYVEGDASSASYFLAGAAITGGTVTVQGCGTTSLQGDVKFAEVLEMMGAKVTWTDTSVTVTGPPREPYGKKHLKAVDVNMNKMPDAAMTLAVVALFADGPTAIRDVASWRVKETERMVAIRTELTKLGASVEEGPDYCIITPPEKLNITAIDTYDDHRMAMAFSLAACADVPVTIRDPGCTRKTFPNYFDVLSTFVSN
modifications: This sequence is synthesized in lab.
notes: rice EPSPS with A70V, G172A, P177S, V403A and R514S mutations
B7: 1-246: rice EPSPS with A145G, G172A, P177S, V403A, T442S and D472E mutations (protein)
chain: MAAKAEEIVLQPIREISGAVQLPGSKSLSNRILLLSALSEGTTVVDNLLNSEDVHYMLEALKALGLSVEADKVAKRGVVVGCGGKFPVEKDAKEEVQLFLGNAATAMRSLTAAVTAAGGNATYVLDGVPRMRERPIGDLVVGLKQLGADVDCFLGTECPPVRVKGIGGLPGGKVKLSGSISSQYLSALLMAAPLALGDVEIEIIDKLISIPYVEMTLRLMERFGVKAEHSDSWDRFYIKGGQKYKSPGNAYVEGDASSASYFLAGAAITGGTVTVQGCGTTSLQGDVKFAEVLEMMGAKVTWTDTSVTVTGPPREPYGKKHLKAVDVNMNKMPDAAMTLAVVALFADGPTAIRDVASWRVKETERMVAIRTELSKLGASVEEGPDYCIITPPEKLNITAIDTYEDHRMAMAFSLAACADVPVTIRDPGCTRKTFPNYFDVLSTFVRN
modifications: This sequence is synthesized in lab.
notes: rice EPSPS with A145G, G172A, P177S, V403A, T442S and D472E mutations
B8: 1-139: rice EPSPS with A73T, E86G, G172A, P177S and V403A mutations (protein)
chain: MAAKTEEIVLQPIREISGAVQLPGSKSLSNRILLLSALSEGTTVVDNLLNSEDVHYMLEALKALGLSVEADKVAKRAVVVGCGGKFPVGKDAKEEVQLFLGNAATAMRSLTAAVTAAGGNATYVLDGVPRMRERPIGDLVVGLKQLGADVDCFLGTECPPVRVKGIGGLPGGKVKLSGSISSQYLSALLMAAPLALGDVEIEIIDKLISIPYVEMTLRLMERFGVKAEHSDSWDRFYIKGGQKYKSPGNAYVEGDASSASYFLAGAAITGGTVTVQGCGTTSLQGDVKFAEVLEMMGAKVTWTDTSVTVTGPPREPYGKKHLKAVDVNMNKMPDAAMTLAVVALFADGPTAIRDVASWRVKETERMVAIRTELTKLGASVEEGPDYCIITPPEKLNITAIDTYDDHRMAMAFSLAACADVPVTIRDPGCTRKTFPNYFDVLSTFVRN
modifications: This sequence is synthesized in lab.
notes: rice EPSPS with A73T, E86G, G172A, P177S and V403A mutations

One test has as its system Escherichia coli DH5α with EPSPS gene knocked out. The experiment in a line: Resistance test of rice EPSPS mutants from error-prone PCR on OsGPV: colony growth on medium with 0, 100 mM and 125 mM glyphosate (FIG. 7). In kind it is cell-based. Particulars: 100 mM glyphosate. From the text: In order to further improve the glyphosate resistance and develop highly resistant rice EPSPS mutants that can meet commercial production requirements, we used OsGPV as a template to perform random mutations, with high-concentration glyphosate screening, and to identify EPSPS mutant that can improve the glyphosate resistance.
We used OsGPV(SEQ ID NO:6) as a template to perform error-prone PCR. (With GeneMorph II Random Mutagenesis Kit, #200550, Agilent Technologies).
a) The recovered product was digested with EcoRI and SbfI, and then ligated to the pKED2 vector after the same double digestion with T4 DNA ligase to obtain the ligation product to obtain the vector carrying the rice EPSPS gene mutant.
b) Transformed the above vector into Escherichia coli DH5α with EPSPS gene knocked out. The transformation steps were as follows: add the above ligation product to 50 μl E. coli DH5α competent cells with EPSPS gene knocked out, mix well and incubate on ice for 30 min, then after a heat shock at 42° C. for 90 s, immediately place it in an ice bath on ice for 2 min after taking it out. After the ice bath, add 500 μl of LB liquid medium and resuscitate at 37° C. at 180 r/min for 45 min. The transformed Escherichia coli was a mutant library expressing rice EPSPS mutant genes obtained on the template basis of OsGPV.
5) Centrifuged the transformed product obtained above at 3000 rpm for 5 min, discarded the supernatant, then resuspended it in 1 ml M9 liquid medium, added 200 μl M9 liquid medium to resuspend and inoculated it on an M9 plate containing 75 mM glyphosate. Incubated at 37 degrees for 24 hours.
Pick and saved the single colonies grown in the above screening plates, and conduct further resistance identification and sequencing
ii. Resistance test of rice mutants. In this example, the wild-type rice EPSPS gene OsWT, the most widely used commercial glyphosate-resistant gene CP4EPSPS, the rice mutantOsTIPS, which had the same mutation type with commercial glyphosate-resistant corn GA21, and the rice mutant OsGPV with the highly glyphosate-resistant rice EPSPS mutant gene obtained in this study were transformed as control, and the newly obtained rice EPSPS mutants were transformed as the experimental group, and the glyphosate resistance among the control and the mutants were compared. The monoclonal bacteria of the control group and the experimental group were respectively inoculated into a medium containing 0, 100 mM and 125 mM glyphosate, and the growth of colonies in each group was observed.
Take B1: the “colony growth under 100 mM glyphosate” value is given as “did not grow”.

The test is the same for the next values; noted with them: 125 mM glyphosate pressure, FIG. 7.
B2: the “colony growth status compared with OsGPV” value is “significantly higher than OsGPV”.
As for B3, the “colony growth status compared with OsGPV” value is “significantly higher than OsGPV”.
With B4, the “colony growth status compared with OsGPV” value was “significantly higher than OsGPV”.
Still for that read-out and setting: the entry for B5 is “significantly higher than OsGPV”.
On the same count and under the same terms, the entry for B6 is “significantly higher than OsGPV”; for B7 it is “significantly higher than OsGPV”.
For the molecule B8, the “colony growth status compared with OsGPV” value is “significantly higher than OsGPV”.
